For this test, the target named is T1, Angptl2-FLAG (human, UniProt Q9UKU9 23-493).
T1 sequence (looked up): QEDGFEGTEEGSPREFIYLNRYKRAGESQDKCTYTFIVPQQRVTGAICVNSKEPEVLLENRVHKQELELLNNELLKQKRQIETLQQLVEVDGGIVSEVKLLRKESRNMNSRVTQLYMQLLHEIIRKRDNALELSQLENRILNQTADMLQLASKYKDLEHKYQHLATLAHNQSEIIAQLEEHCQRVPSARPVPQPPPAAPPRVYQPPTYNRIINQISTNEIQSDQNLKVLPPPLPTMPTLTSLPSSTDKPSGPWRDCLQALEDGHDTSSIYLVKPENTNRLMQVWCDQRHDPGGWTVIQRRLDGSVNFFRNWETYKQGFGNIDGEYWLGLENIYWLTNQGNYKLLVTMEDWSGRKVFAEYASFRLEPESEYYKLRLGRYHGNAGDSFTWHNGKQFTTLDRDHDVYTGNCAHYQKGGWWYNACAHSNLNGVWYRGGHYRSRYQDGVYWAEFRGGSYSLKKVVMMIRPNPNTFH
Kind of test: co-IP.

The record followed here is article PMC3367397 (Nature, 2012).

B1: LILRB2 extracellular domain (ECD) fused to human IgG-Fc (Fc fusion, UniProt Q8N423 22-460, looked up)
chain: QTGTIPKPTLWAEPDSVITQGSPVTLSCQGSLEAQEYRLYREKKSASWITRIRPELVKNGQFHIPSITWEHTGRYGCQYYSRARWSELSDPLVLVMTGAYPKPTLSAQPSPVVTSGGRVTLQCESQVAFGGFILCKEGEDEHPQCLNSQPHARGSSRAIFSVGPVSPNRRWSHRCYGYDLNSPYVWSSPSDLLELLVPGVSKKPSLSVQPGPVMAPGESLTLQCVSDVGYDRFVLYKEGERDLRQLPGRQPQAGLSQANFTLGPVSRSYGGQYRCYGAHNLSSECSAPSDPLDILITGQIRGTPFISVQPGPTVASGENVTLLCQSWRQFHTFLLTKAGAADAPLRLRSIHEYPKYQAEFPMSPVTSAHAGTYRCYGSLNSDPYLLSHPSEPLELVVSGPSMGSSPPPTGPISTPGPEDQPLTPTGSDPQSGLGRHLGV
Consider B1, for which the binding result is on record as “binds”.
